The source of these data is patent CN105542007A (UNIV NANCHANG, dated 2016).

Test [1] concerns the target T1, 重组表达的PSMA胞外区蛋白 (recombinant extracellular domain of prostate-specific membrane antigen, expressed in HEK-293) (UniProt Q04609 44-750, limits assumed).
T1 construct: extracellular domain; Cloned into pRAG2a via NotI/BamHI, secreted from HEK-293 cells and purified with HisTrap; also called 前列腺特异性膜抗原膜外区; PSMA蛋白; not shown: His tag (purified with HisTrap, detected with anti-His antibody)
Briefly: indirect phage-ELISA, PSMA extracellular domain coated at 5 μg/mL, HRP-anti-M13 detection. (In general: An ELISA detects its analyte on a solid surface through an enzyme-linked reagent.)

Test [2] has as its target T2, 前列腺特异性膜抗原 (PSMA) on LNCaP prostate cancer cells (UniProt Q04609 1-750, limits assumed).
T2 construct: whole, on cells; Endogenous PSMA on fixed LNCaP cells; also called LNCaP细胞(表达PSMA)
Briefly: cell ELISA on fixed LNCaP (PSMA+) against MKN45 (PSMA-) cells, HRP-anti-M13 detection, OD450.

T1 sequence (Q04609 44-750 limits assumed): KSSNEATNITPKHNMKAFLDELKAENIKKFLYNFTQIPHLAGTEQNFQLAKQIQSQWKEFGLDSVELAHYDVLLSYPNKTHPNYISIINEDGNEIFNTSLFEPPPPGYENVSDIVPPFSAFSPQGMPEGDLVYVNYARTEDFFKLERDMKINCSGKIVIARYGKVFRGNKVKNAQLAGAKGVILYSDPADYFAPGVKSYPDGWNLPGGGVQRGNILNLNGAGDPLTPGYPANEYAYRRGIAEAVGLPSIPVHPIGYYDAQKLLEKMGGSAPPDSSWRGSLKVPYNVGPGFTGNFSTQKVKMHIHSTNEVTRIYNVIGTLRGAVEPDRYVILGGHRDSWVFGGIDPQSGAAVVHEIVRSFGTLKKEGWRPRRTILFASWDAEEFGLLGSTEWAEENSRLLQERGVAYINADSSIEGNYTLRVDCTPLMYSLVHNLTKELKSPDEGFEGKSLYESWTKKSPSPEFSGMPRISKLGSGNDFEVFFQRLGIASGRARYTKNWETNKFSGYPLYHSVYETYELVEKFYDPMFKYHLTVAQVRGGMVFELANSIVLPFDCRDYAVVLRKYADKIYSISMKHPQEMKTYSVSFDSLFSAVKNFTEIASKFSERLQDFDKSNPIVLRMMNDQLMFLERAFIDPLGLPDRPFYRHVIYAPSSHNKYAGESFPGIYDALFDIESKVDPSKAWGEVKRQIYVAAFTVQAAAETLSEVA
T2 sequence (Q04609 whole entry): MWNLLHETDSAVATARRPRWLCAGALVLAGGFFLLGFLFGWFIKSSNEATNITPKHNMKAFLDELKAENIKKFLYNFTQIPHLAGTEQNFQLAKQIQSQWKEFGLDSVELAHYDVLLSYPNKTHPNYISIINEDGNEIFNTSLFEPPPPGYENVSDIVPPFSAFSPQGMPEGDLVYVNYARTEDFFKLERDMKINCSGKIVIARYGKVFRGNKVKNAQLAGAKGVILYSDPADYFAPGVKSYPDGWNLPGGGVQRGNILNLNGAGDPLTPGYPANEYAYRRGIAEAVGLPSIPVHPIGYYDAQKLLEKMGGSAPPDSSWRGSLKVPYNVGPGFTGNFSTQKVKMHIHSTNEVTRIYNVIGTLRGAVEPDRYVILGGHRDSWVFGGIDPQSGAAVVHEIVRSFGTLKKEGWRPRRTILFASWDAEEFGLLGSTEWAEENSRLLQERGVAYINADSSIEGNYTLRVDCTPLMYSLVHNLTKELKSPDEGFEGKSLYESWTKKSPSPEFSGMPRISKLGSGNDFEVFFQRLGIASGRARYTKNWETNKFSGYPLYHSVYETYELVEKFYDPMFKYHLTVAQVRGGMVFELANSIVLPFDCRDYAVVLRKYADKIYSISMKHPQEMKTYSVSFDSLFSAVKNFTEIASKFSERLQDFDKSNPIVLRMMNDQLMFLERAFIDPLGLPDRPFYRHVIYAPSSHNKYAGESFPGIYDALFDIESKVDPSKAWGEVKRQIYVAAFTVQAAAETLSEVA

B1: 抗前列腺特异性膜抗原单域重链抗体噬菌体阳性克隆 (phage clone displaying the anti-PSMA single-domain heavy-chain antibody of SEQ ID NO: 1) (VHH)
VHH: QLQLVESGGGLVQAGGSLRLSCAASGRTFSRYAVGWFRQAPGKEREFVSGLSWTGSSTLYADSVKGRFTFSRDNAKKMVYLQMNTLMPEDTAVYYCAARKTRGKSYEYWGQGTQVTVSS
notes: VHH selected from a naive camelid phage display library; It was tested as a phage particle and detected with anti-M13 antibody, not as a purified protein; also called 针对前列腺特异性膜抗原的单域重链抗体阳性克隆; 展示本发明所述纳米抗体的噬菌体克隆; not shown: the phage coat protein fusion and any linker or tag are not described
Turning to B1, the binding result in test [1] and in test [2] was “binds” in each case.
